Test results taken from paper PMC4022583.

Biological target: fluorescein labelled MPT peptide (UniProt P35579)
Experiment: fluorescence polarisation; S100A4 variant and fluorescein labelled MPT peptide

Kd [nM]	Substance
0.12	wild-type S100A4 (from UniProt P26447 1-101) (natural protein)
0.28	S100A4 C-terminal deletion mutant (residues 1-88, Δ13) (from UniProt P26447 1-88) (domain or fragment)
